This note sets out measurements from patent publication US20130078247A1 (Boehringer Ingelheim, published 2013).

For assay [1], the target named is T1, human DLL4, full length, overexpressed on CHO or HEK293 cells (human, UniProt Q9NR61 27-685). Briefly: cell-based or functional assay.
In assay [2] the target is T1, human DLL4, full length, overexpressed …. Briefly: periplasmic extract; FMAT, Notch1/Fc on CHO-hDLL4. The text has this: (§1) All calculations are based on the FL1_total signal which comprises the average of the fluorescence per well times the number of counts per well.
The target in assay [3] is T2, mouse DLL4, full length, overexpressed on CHO or HEK293 cells (mouse, UniProt Q9JI71 27-686).
T2 construct: whole, on cells; also called CHO-mDLL4; CHO-mDII4
Briefly: periplasmic extract; FMAT, Notch1/Fc on CHO-mDLL4.
Description: as §1

Assay [4] deals with T3, recombinant human DLL4 (human, UniProt Q9NR61 25-522). Briefly: cell-based or functional assay.
The target of the next assay is T4, human DLL1 (human, UniProt O00548 18-545, limits assumed).
T4 construct: also called hDLL1; rhDLL1
T4 sequence (looked up): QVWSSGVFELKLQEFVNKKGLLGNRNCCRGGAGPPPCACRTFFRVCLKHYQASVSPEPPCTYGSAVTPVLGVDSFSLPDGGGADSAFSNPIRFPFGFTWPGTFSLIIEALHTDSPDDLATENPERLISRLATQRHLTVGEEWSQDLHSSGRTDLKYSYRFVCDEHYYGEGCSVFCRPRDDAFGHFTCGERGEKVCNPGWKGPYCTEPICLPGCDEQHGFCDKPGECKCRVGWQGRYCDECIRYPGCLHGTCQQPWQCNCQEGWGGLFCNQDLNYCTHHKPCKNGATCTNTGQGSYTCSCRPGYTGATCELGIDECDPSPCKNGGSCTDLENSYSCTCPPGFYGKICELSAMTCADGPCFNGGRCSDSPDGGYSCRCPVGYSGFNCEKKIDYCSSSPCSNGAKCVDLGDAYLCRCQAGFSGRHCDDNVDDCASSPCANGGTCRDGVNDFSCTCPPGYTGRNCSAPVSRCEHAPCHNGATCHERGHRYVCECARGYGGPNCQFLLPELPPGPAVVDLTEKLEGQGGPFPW
Briefly: binding ELISA, coated hDLL1. The method, then:
(§2) Absence of binding to homologous ligands human DLL1 and human Jagged-1 is assessed via solid phase binding assay (ELISA). In brief, human DLL1 (Alexis, San Diego, Calif., USA) and human Jagged-1 (Alexis, San Diego, Calif., USA) are coated overnight at 4° C. at 1 μg/mL in a 96-well MaxiSorp plate (Nunc, Wiesbaden, Germany). Wells are blocked with a casein solution (1% in PBS). VHHs are applied as dilution series and binding is detected using a mouse anti-myc (Roche) and an anti-mouse-AP conjugate (Sigma, St. Louis, Mo., USA).

The target in a further assay is T5, human Jagged-1 (human, UniProt P78504 34-1067, limits assumed).
T5 construct: also called hJag-1; hJAG1
Briefly: binding ELISA, coated hJagged-1. As for the experimental part: as §2

Assay [5] deals with T6, recombinant human Jagged-1 (Alexis) (human, UniProt P78504 34-1067, limits assumed).
T6 construct: also called hJagged-1; hJAG1
Briefly: rhDLL1/rhJAG1 binding ELISA.

The target of assay [6] is T7, recombinant human DLL1 (Alexis) (human, UniProt O00548 18-545, limits assumed).
T7 construct: also called hDLL1; rhDLL1
T7 sequence (looked up): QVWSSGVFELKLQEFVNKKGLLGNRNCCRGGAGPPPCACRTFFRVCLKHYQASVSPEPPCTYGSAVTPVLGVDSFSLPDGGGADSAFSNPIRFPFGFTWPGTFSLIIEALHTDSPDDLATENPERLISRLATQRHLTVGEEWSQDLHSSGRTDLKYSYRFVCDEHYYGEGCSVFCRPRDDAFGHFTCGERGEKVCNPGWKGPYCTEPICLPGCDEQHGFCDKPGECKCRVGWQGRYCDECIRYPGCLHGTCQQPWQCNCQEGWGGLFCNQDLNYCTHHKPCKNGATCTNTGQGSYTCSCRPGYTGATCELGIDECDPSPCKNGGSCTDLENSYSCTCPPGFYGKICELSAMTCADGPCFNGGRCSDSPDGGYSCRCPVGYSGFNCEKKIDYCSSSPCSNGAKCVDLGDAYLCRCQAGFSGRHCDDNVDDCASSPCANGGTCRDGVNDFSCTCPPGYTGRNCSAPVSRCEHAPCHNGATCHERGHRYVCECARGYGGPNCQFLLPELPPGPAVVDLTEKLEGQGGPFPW
Briefly: rhDLL1/rhJAG1 binding ELISA.

The target of assay [7] is T3, recombinant human DLL4. Briefly: ProteOn off-rate screen, periplasmic extract, hDLL4 on chip. The method, then: (§3) In a first cycle, amino acid substitutions are introduced randomly in both framework (FW) and complementary determining regions (CDR) using the error-prone PCR method. […] After a polish step, PCR products are inserted via unique restriction sites into a vector designed to facilitate phage display of the VHH library. […] No selections on murine DLL4 are included as (conservation of) cross-reactivity is assessed at the screening level. Individual mutants are produced as recombinant protein using an expression vector derived from pUC119, which contains the LacZ promoter, a resistance gene for ampicillin, a multiple cloning site and an ompA leader sequence (pAX50). E. coli TG1 cells are transformed with the expression vector library and plated on agar plates (LB+Amp+2% glucose). Single colonies are picked from the agar plates and grown in 1 mL 96-deep-well plates. VHH expression is induced by adding IPTG (1 mM). Periplasmic extracts (in a volume of ˜80 uL) are prepared according to standard methods and screened for binding to recombinant human and mouse DII4 in a ProteOn (BioRad, Hercules, Calif., USA) off-rate assay. […] Periplasmic extract of affinity matured clones is diluted 1/10 and injected across the “analyte channels” A1-A6. An average off-rate is calculated of the wild type clones present in the plate and served as a reference to calculate off-rate improvements.

For the next assay, the target named is T8, recombinant mouse DLL4 (mouse, UniProt Q9JI71 27-532).
T8 construct: extracellular domain; also called rmDLL4; mDLL4; not shown: C-terminal His tag
Briefly: ProteOn off-rate screen, periplasmic extract, mDLL4 on chip. The method, then:
as §3

T8 sequence (Q9JI71 27-532): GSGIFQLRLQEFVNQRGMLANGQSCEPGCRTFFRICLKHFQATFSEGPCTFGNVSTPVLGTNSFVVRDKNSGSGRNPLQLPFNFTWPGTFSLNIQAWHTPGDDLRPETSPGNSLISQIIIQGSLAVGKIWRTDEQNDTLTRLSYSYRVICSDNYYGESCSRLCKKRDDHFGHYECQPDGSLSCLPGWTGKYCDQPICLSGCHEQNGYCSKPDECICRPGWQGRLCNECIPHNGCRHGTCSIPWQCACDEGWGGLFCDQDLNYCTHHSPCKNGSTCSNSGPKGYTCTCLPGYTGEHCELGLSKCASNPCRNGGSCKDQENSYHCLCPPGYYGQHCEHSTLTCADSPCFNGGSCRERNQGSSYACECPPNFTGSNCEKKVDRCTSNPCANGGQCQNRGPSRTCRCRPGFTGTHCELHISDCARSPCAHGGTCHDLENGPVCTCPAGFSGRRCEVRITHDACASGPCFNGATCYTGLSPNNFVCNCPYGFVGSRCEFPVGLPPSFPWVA
T2 sequence (Q9JI71 27-686): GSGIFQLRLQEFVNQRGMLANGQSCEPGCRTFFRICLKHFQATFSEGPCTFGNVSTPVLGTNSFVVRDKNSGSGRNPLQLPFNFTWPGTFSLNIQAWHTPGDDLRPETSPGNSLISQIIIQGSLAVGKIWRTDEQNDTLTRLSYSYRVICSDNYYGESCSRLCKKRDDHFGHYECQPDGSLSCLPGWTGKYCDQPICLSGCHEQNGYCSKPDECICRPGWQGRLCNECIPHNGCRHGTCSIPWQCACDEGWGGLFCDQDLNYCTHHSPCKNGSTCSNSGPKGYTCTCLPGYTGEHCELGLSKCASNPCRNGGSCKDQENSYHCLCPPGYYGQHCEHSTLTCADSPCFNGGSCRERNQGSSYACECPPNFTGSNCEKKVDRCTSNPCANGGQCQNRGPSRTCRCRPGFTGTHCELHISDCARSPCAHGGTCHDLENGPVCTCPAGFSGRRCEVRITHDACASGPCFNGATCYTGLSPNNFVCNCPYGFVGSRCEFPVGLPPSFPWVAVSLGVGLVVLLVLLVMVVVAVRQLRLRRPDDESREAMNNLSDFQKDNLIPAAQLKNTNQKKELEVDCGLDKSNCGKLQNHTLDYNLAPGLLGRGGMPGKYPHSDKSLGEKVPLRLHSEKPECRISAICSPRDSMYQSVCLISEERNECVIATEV

B1: DLLBII62C11 (VHH)
VHH: EVQLMESGGGLVQPGGSLRLSCVAAGFTFSNYYMSWVRQAPGKGLEWVSVISPDGSNTYYADTVKGRFTISRGNAKNTLFLQMTGLKSEDAAVYYCARGSGSWGVHGQGTQVTVSS
notes: not shown: C-terminal c-myc and His6 tags
Take B1: the “IC50, DLL4/Notch1 reporter assay (luciferase; co-culture with HEK293-hDII4)” value in assay [1] was 4660 nM. The entries for the “% inhibition” value in assay [2] and in [3] were 74% and 71%, respectively.

B2: DLLBII115A05 (VHH)
VHH: EVQLVESGGGLVQPGGSLRLSCAASGFTFGSYDMSWVRRSPGKGPEWVSSINSGGGSTYYADFVKGRFTISRDNAKNTLYLQMNSLKPEDTAVYYCAADRYIRARQGDYWGAYEYDYWGQGTQVTVSS
notes: also called 115A5; DLLBII115A5; not shown: C-terminal c-myc tag and His6 tag
For the molecule B2, the “IC50 (nM) in the DLL4 proliferation assay (HUVEC, experiment 1)” value (“IC50 (nM) … (HUVEC, experiment 1)” for short) with recombinant human DLL4 [4] turned out to be 10000 nM. The binding result with human DLL1 and with human Jagged-1 was “no binding” in each case.

B3: DLLBII133A09 (VHH)
VHH: EVQLVESGGGLVQPGGSLRLSCAASGFTFGSYDMSWVRRSPGKGPEWVSAINSGGGSTYYADYVKGRFTISRDNAKNTLYLQMNSLKPEDTAVYYCAADRYIWARQGEYWGAYAYDYWGQGTQVTVSS
notes: not shown: C-terminal c-myc tag and (His)6 tag
B3: the binding result with human DLL1 and with human Jagged-1 was “no binding” in each case.

B4: DLLBII133G05 (VHH)
VHH: EVQLVESGGGLVQPGGSLRLSCAASGFTFGSYDMSWVRRSPGKGPEWVSAINSGGGSTYYTDYVKGRFTISRDNAKNTLYLQMNSLKPEDTAVYYCAADRYIWARQGEYWGAYAYDYWGQGTQVTVSS
notes: as for B3
B4: the binding result in the assay with human DLL1 and with human Jagged-1 was “no binding” throughout.

B5: DLLBII136C07 (VHH)
VHH: EVQLVESGGGLVQPGGSLRLSCAASGFTFGSYDMSWVRRSPGKGPEWVSSINSGGGSTYYADYVKGRFTISRDNAKNTLYLQMNSLKPEDTAVYYCAADRYIWARQGEYWGAYEYDYWGQGTQVTVSS
notes: as for B1
In the case of B5, the binding result in assay [5] and in assay [6] was “no binding” in each case.

B6: DLLBII015 (VHH)
VHH: EVQLVESGGGLVQPGGSLRLSCAASGFTIGSYDMSWVRRSPGKGPEWVSAINSGGGSTYYADYVKGRFTISRDNAKNTLYLQMNSLKPEDTAVYYCAADRYIWARQGEYWGAYAYDYWGQGTQVTVSS
notes: as for B1
Turning to B6, the binding result in assay [5] and in assay [6] was “no binding” throughout.

B7: DLLBII136C07 (VHH)
VHH: EVQLVESGGGLVQPGGSLRLSCAASGFTFGSYDMSWVRRSPGKGPEWVSSINSGGGSTYYADYVKGRFTISRDNAKNTLYLQMNSLKPEDTAVYYCAADRYIWARQGEYWGAYEYDYWGQGTQVTVSS
notes: as for B3
With B7, the binding result with human DLL1 and with human Jagged-1 was “no binding” each time.

B8: DLLBII129D08 (VHH)
VHH: EVQLVESGGGLVQAGGSLRLSCAASGRTFSSYAMAWYRQAPGKEREYVAAIRWSGGTAYYADSVQGRFTISRDNAKNTVYLQMNSLKPEDTAVYYCANRAPDTRLEPYLYDYWGQGTQVTVSS
notes: as for B1
With B8, the binding result in assay [5] and in assay [6] was “no binding” each time.

B9: DLLBII129D08 (VHH)
VHH: EVQLVESGGGLVQAGGSLRLSCAASGRTFSSYAMAWYRQAPGKEREYVAAIRWSGGTAYYADSVQGRFTISRDNAKNTVYLQMNSLKPEDTAVYYCANRAPDTRLEPYLYDYWGQGTQVTVSS
notes: as for B3
In the case of B9, the binding result in the assay with human DLL1 and with human Jagged-1 was “no binding” each time. The “fold (off-rate improvement over DLLBII101G08)” value (from here on “fold”) with recombinant human DLL4 [7] is 38 fold; with recombinant mouse DLL4, 35 fold.

B10: DLLBII101G08 (VHH)
VHH: EVQLVESGGGLVQAGGSLRLSCAASGRTFSSYAMAWFRQAPGKEREFVAAIRWSGGTAYYADSVQGRFTISRDNAKNTVYLQMNSLKPEDTAVYYCANRAADTRLGPYEYDYWGQGTQVTVSS
notes: also called 101G8; DLLBII101G8; not shown: C-terminal c-myc tag and His6 tag
With B10, the “IC50 (nM) … (HUVEC, experiment 1)” value in the assay with recombinant human DLL4 [4] worked out at 401 nM. In addition, the “IC50 (nM) in the DLL4 proliferation assay (HUVEC, experiment 2)” value with recombinant human DLL4 [4] turned out to be 112 nM. For the same molecule, the binding result in the assay with human DLL1 and in the assay with human Jagged-1 was “no binding” throughout. The “fold” value with recombinant human DLL4 [7] and with recombinant mouse DLL4 was 1 fold each time.

B11: DLLBII129B05 (VHH)
VHH: EVQLVESGGGLVQAGGSLRLSCAASGRTFSSYAMAWYRQAPGKEREYVAAIRWSGGTAYYADSVQGRFTISRDNAKNTVYLQMNSLKPEDTAVYYCANRAPDTRLAPYEYDHWGQGTQVTVSS
notes: as for B1
For the molecule B11, the binding result in assay [5] and in [6] was “no binding” each time.

B12: DLLBII129E11 (VHH)
VHH: EVQLVESGGGLVQAGGSLRLSCAASGRTFSSYAMAWYRQAPGKEREYVAAIRWSGGTAYYADSVQGRFTISRDNAKNTVYLQMNSLKPEDTAVYYCANRAPDTRLRPYLYDYWGQGTQVTVSS
notes: as for B1
Consider B12, for which the binding result in [5] and in assay [6] was “no binding” in each case.

B13: DLLBII129B05 (VHH)
VHH: EVQLVESGGGLVQAGGSLRLSCAASGRTFSSYAMAWYRQAPGKEREYVAAIRWSGGTAYYADSVQGRFTISRDNAKNTVYLQMNSLKPEDTAVYYCANRAPDTRLAPYEYDHWGQGTQVTVSS
notes: as for B3
As for B13, the binding result with human DLL1 and with human Jagged-1 was “no binding” each time. Besides, the “fold” value with recombinant human DLL4 [7] came to 24 fold; in the assay with recombinant mouse DLL4, 20 fold.

B14: DLLBII129E11 (VHH)
VHH: EVQLVESGGGLVQAGGSLRLSCAASGRTFSSYAMAWYRQAPGKEREYVAAIRWSGGTAYYADSVQGRFTISRDNAKNTVYLQMNSLKPEDTAVYYCANRAPDTRLRPYLYDYWGQGTQVTVSS
notes: as for B3
For B14, the binding result in the assay with human DLL1 and with human Jagged-1 was “no binding” each time. The “fold” value with recombinant human DLL4 [7] turned out to be 28 fold; with recombinant mouse DLL4, 26 fold.

B15: DLLBII56A09 (VHH, not shown: small tags and cut ends)
VHH: EVQLVESGGGLVQPGGSLRLSCAASGFTFDDYAIGWFRQAPGKEPEGISCISSSGGITYYADSVKGRFTTSRDNAKNTVYLQMNSLKPEDTAVYYCATPGIAACRGIHYTGQGTQVTVSS
B15: in the assay with recombinant human DLL4 [4], the “IC50 (nM) … (HUVEC, experiment 1)” value amounted to 11 nM and the “IC50 (nM) in the DLL4 proliferation assay (HUVEC, experiment 2)” value turned out to be 6.8 nM.
